Assay results as given in patent US20190276511A1 (BIONTECH RNA PHARMACEUTICALS, published 2019).
Like-named read-outs stand apart in the source and are kept apart here.

T1: OX40 receptor on cells (human, UniProt P43489 29-277)
T1 sequence (looked up): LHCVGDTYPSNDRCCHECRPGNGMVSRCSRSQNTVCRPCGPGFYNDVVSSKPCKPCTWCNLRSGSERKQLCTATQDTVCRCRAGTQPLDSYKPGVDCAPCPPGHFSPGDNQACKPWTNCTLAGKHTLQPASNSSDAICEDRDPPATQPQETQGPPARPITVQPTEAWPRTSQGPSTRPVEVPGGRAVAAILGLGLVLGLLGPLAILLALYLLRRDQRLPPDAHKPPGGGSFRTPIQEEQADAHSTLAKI

T2: CD27-Fc (human, UniProt P26842 20-191)
T2 construct: extracellular domain; hinge included for covalent assembly; also called CD27 receptor-Fc fusion protein; not shown: human Fc gamma 1 region including the hinge region
T2 sequence (looked up): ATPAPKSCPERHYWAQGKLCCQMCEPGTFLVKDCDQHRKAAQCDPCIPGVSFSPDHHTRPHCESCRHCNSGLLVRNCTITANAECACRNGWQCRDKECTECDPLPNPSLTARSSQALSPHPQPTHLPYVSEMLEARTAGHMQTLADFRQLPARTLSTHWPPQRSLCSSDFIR

T3: OX40-Fc (human, UniProt P43489 29-214)
T3 construct: extracellular domain; hinge included for covalent assembly; also called OX40 receptor-Fc fusion protein; not shown: human Fc gamma 1 region including the hinge region
T3 sequence (looked up): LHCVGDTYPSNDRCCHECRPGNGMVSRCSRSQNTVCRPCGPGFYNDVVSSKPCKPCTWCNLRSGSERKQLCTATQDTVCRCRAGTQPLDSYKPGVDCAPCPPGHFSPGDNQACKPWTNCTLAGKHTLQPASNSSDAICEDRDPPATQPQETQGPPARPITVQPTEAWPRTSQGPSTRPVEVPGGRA


How the values were obtained:
OX40 receptor on cells [1] = target: T1, OX40 receptor on cells; assay: cell-based or functional assay
CD40 receptor on cells [2] = target: T4, CD40 receptor on cells (human, UniProt P25942 21-277); assay: cell-based or functional assay
T4 sequence (P25942 21-277): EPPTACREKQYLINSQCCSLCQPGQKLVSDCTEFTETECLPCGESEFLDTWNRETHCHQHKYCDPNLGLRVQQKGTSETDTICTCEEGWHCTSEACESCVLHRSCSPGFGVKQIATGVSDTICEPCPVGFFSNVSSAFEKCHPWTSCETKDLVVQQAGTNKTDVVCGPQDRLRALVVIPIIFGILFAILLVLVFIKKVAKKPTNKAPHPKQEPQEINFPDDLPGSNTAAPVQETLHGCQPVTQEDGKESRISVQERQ

CD27-Fc [3] = target: T2, CD27-Fc; assay: ELISA, coated receptor-Fc
4-1BB-Fc = target: T5, 4-1BB-Fc (human, UniProt Q07011 24-186); assay: ELISA, coated receptor-Fc
T5 construct: extracellular domain; hinge included for covalent assembly; also called 4-1BB receptor-Fc fusion protein; not shown: human Fc gamma 1 region including the hinge region

OX40-Fc [4] = target: T3, OX40-Fc; assay: ELISA, coated receptor-Fc
Description: (§1) Receptor binding of the Duokines was analyzed by ELISA using fusion proteins of the extracellular region of CD40, CD27, 4-1BB and OX40, respectively, with the human Fcγ1 region including the hinge region for covalent assembly (CD40-Fc, CD27-Fc, 4-1BB-Fc, OX40-Fc). Receptor-Fc fusion proteins (200 ng/well) were coated overnight at 4° C. and remaining binding sites were blocked with PBS, 2% skimmed milk powder (2% MPBS).

CD40-Fc [5] = target: T6, CD40-Fc (human, UniProt P25942 21-193); assay: ELISA, coated receptor-Fc
T6 construct: extracellular domain; hinge included for covalent assembly; also called CD40 receptor-Fc fusion protein; not shown: human Fc gamma 1 region including the hinge region
T6 sequence (P25942 21-193 limits assumed): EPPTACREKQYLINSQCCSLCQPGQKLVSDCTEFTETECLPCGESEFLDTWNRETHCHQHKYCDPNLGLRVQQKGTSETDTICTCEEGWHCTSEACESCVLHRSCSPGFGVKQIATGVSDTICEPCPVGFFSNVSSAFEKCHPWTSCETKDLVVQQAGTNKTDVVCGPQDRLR
Description: as §1

OX40-Fc [6] = target: T3, OX40-Fc; assay: ELISA, coated receptor-Fc; remark: listed apart in the source
Description: as §1, with “of the single-chain Duokines was” for “of the Duokines was”, “(2% MPBS). […] The interactions between scDuokine and receptor were dose-dependent with EC₅₀ values in the low nanomolar ranges (FIG. 11 AB, Tab. 2).” for “(2% MPBS).”

CD27-Fc [7] = target: T2, CD27-Fc; assay: ELISA, coated receptor-Fc; remark: listed apart in the source
Description: as §1, with “of the single-chain Duokines was” for “of the Duokines was”, “(2% MPBS). […] The interactions between scDuokine and receptor were dose-dependent with EC₅₀ values in the low nanomolar ranges (FIG. 11 AB, Tab. 2).” for “(2% MPBS).”

CD40-Fc [8] = target: T6, CD40-Fc; assay: ELISA, coated receptor-Fc; remark: listed apart in the source
OX40 receptor on cells [9] = target: T1, OX40 receptor on cells; assay: cell-based or functional assay; remark: listed apart in the source
CD40-Fc [10] = target: T6, CD40-Fc; assay: ELISA, coated receptor-Fc; remark: listed apart in the source
Description: as §1, with “of the single-chain Duokines was” for “of the Duokines was”, “(2% MPBS). […] The interactions between scDuokine and receptor were dose-dependent with EC₅₀ values in the low nanomolar ranges (FIG. 11 AB, Tab. 2).” for “(2% MPBS).”

CD40 receptor on cells [11] = target: T4, CD40 receptor on cells; assay: cell-based or functional assay; remark: listed apart in the source

| Receptor activation (EC50, nM) (OX40 receptor on cells [1]) | Receptor activation (EC50, nM) (CD40 receptor on cells [2]) | binding result (CD27-Fc [3]) | binding result (4-1BB-Fc) | EC50 (OX40-Fc [4]) | EC50 (CD40-Fc [5]) | EC50 (OX40-Fc [6]) | EC50 (CD27-Fc [7]) | binding result (CD40-Fc [8]) | Receptor activation (EC50, nM) (OX40 receptor on cells [9]) | EC50 (CD40-Fc [10]) | Receptor activation (EC50, nM) (CD40 receptor on cells [11]) | Binder |
| --- | --- | --- | --- | --- | --- | --- | --- | --- | --- | --- | --- | --- |
| 0.7 nM | 16.6 nM | no binding (tested: 100 nM (FIG. 4)) | no binding (tested: 100 nM (FIG. 4)) | 0.51 nM | 2.18 nM | – | – | – | – | – | – | CD40L-OX40L (ligand, Duokine from HEK293, FLAG-purified; VH leader left out; homotrimer by SEC; also called Duokine CD40L-OX40L; not shown: N-terminal FLAG tag) GDQNPQIAAHVISEASSKTTSVLQWAEKGYYTMSNNLVTLENGKQLTVKRQGLYYIYAQVTFCSNREASSQAPFIASLCLKSPGRFERILLRAANTHSSAKPCGQQSIHLGGVFELQPGASVFVNVTDPSQVSHGTGFTSFGLLKLGGGGSGGGGSGGGGSQVSHRYPRIQSIKVQFTEYKKEKGFILTSQKEDEIMKVQNNSVIINCDGFYLISLKGYFSQEVNISLHYQKDEEPLFQLKKVRSVNSLMVASLTYKDKVYLNVTTDNTSLDDFHVNGGELILIHQNPGEFCVL |
| – | – | – | no binding (tested: 100 nM (FIG. 10)) | – | – | 286 nM | 7.34 nM | no binding (tested: 100 nM (FIG. 10)) | 1.49 nM | – | – | scCD27L-scOX40L (ligand, scDuokine from HEK293, FLAG-purified; VH leader left out; also called single-chain Duokine scCD27L-scOX40L; not shown: N-terminal FLAG tag) SLGWDVAELQLNHTGPQQDPRLYWQGGPALGRSFLHGPELDKGQLRIHRDGIYMVHIQVTLAICSSTTASRHHPTTLAVGICSPASRSISLLRLSFHQGCTIASQRLTPLARGDTLCTNLTGTLLPSRNTDETFFGVQWVRPGGGSGGGSLGWDVAELQLNHTGPQQDPRLYWQGGPALGRSFLHGPELDKGQLRIHRDGIYMVHIQVTLAICSSTTASRHHPTTLAVGICSPASRSISLLRLSFHQGCTIASQRLTPLARGDTLCTNLTGTLLPSRNTDETFFGVQWVRPGGGSGGGSLGWDVAELQLNHTGPQQDPRLYWQGGPALGRSFLHGPELDKGQLRIHRDGIYMVHIQVTLAICSSTTASRHHPTTLAVGICSPASRSISLLRLSFHQGCTIASQRLTPLARGDTLCTNLTGTLLPSRNTDETFFGVQWVRPGGGGSGGGTGGGGSQVSHRYPRIQSIKVQFTEYKKEKGFILTSQKEDEIMKVQNNSVIINCDGFYLISLKGYFSQEVNISLHYQKDEEPLFQLKKVRSVNSLMVASLTYKDKVYLNVTTDNTSLDDFHVNGGELILIHQNPGEFCVLGGGSGGGQVSHRYPRIQSIKVQFTEYKKEKGFILTSQKEDEIMKVQNNSVIINCDGFYLISLKGYFSQEVNISLHYQKDEEPLFQLKKVRSVNSLMVASLTYKDKVYLNVTTDNTSLDDFHVNGGELILIHQNPGEFCVLGGGSGGGQVSHRYPRIQSIKVQFTEYKKEKGFILTSQKEDEIMKVQNNSVIINCDGFYLISLKGYFSQEVNISLHYQKDEEPLFQLKKVRSVNSLMVASLTYKDKVYLNVTTDNTSLDDFHVNGGELILIHQNPGEFCVL |
| – | – | no binding (tested: 100 nM (FIG. 10)) | no binding (tested: 100 nM (FIG. 10)) | – | – | 1.33 nM | – | – | 0.57 nM | 40.2 nM | 9.54 nM | scCD40L-scOX40L (ligand, scDuokine from HEK293, FLAG-purified; VH leader left out; also called single-chain Duokine scCD40L-scOX40L; not shown: N-terminal FLAG tag) GDQNPQIAAHVISEASSKTTSVLQWAEKGYYTMSNNLVTLENGKQLTVKRQGLYYIYAQVTFCSNREASSQAPFIASLCLKSPGRFERILLRAANTHSSAKPCGQQSIHLGGVFELQPGASVFVNVTDPSQVSHGTGFTSFGLLKLGGGSGGGGDQNPQIAAHVISEASSKTTSVLQWAEKGYYTMSNNLVTLENGKQLTVKRQGLYYIYAQVTFCSNREASSQAPFIASLCLKSPGRFERILLRAANTHSSAKPCGQQSIHLGGVFELQPGASVFVNVTDPSQVSHGTGFTSFGLLKLGGGSGGGGDQNPQIAAHVISEASSKTTSVLQWAEKGYYTMSNNLVTLENGKQLTVKRQGLYYIYAQVTFCSNREASSQAPFIASLCLKSPGRFERILLRAANTHSSAKPCGQQSIHLGGVFELQPGASVFVNVTDPSQVSHGTGFTSFGLLKLGGGGSGGGTGGGGSQVSHRYPRIQSIKVQFTEYKKEKGFILTSQKEDEIMKVQNNSVIINCDGFYLISLKGYFSQEVNISLHYQKDEEPLFQLKKVRSVNSLMVASLTYKDKVYLNVTTDNTSLDDFHVNGGELILIHQNPGEFCVLGGGSGGGQVSHRYPRIQSIKVQFTEYKKEKGFILTSQKEDEIMKVQNNSVIINCDGFYLISLKGYFSQEVNISLHYQKDEEPLFQLKKVRSVNSLMVASLTYKDKVYLNVTTDNTSLDDFHVNGGELILIHQNPGEFCVLGGGSGGGQVSHRYPRIQSIKVQFTEYKKEKGFILTSQKEDEIMKVQNNSVIINCDGFYLISLKGYFSQEVNISLHYQKDEEPLFQLKKVRSVNSLMVASLTYKDKVYLNVTTDNTSLDDFHVNGGELILIHQNPGEFCVL |
